Results reported in paper PMC6969876, “NADPH biosensor-based identification of an alcohol dehydrogenase variant with improved catalytic properties caused by a single charge reversal at the protein surface” (AMB Express, 2020).

Target: LbADH^K71E, variant of the NADPH-dependent alcohol dehydrogenase of Lactobacillus brevis, with N-terminal Strep-tag II (Lactobacillus brevis)
Experiment: SEC; Superdex 200 increase 10/300 GL, buffer A (50 mM triethanolamine hydrochloride, 1 mM MgCl2, pH 7.0), 0.75 mL/min; apparent native mass from a calibration curve with carbonic anhydrase, bovine serum albumin, alcohol dehydrogenase and beta-amylase; affinity-purified protein loaded

stoichiometry N: 4
Substance: LbADH^K71E, variant of the NADPH-dependent alcohol dehydrogenase of Lactobacillus brevis, with N-terminal Strep-tag II (enzyme)
